Data published in patent publication US20100041875A1.

Experiments:
[1] = biological target: full-length WT JR-FL (gp160) Env (JR-FL WT) (HIV-1 isolate JR-FL (subtype B)) (UniProt P20871); assay: cell-based or functional assay
[2] = biological target: JR-FL gp41 NT 1-5 mutant Env (full-length gp160) (HIV-1 isolate JR-FL (subtype B)) (UniProt P20871); assay: cell-based or functional assay
[3] = biological target: JR-FL gp41 NT 1-5 SOS gp140 mutant (trimer) (HIV-1 isolate JR-FL (subtype B)) (UniProt P20871); assay: SPR (BIAcore X): agent captured via Fc on protein G chip, 5 nM purified gp140 trimer injected
[4] = biological target: wild-type JR-FL SOS gp140 (trimer) (HIV-1 isolate JR-FL (subtype B)) (UniProt P20871); assay: as above
[5] = biological target: JR-FL gp41 NT 1-5 SOS gp140 mutant (trimer) (HIV-1 isolate JR-FL (subtype B)) (UniProt P20871); assay: SPR (BIAcore X): agent captured via Fc on protein G chip, 5 nM purified gp140 trimer injected, no CD4
[6] = biological target: wild-type JR-FL SOS gp140 (trimer) (HIV-1 isolate JR-FL (subtype B)) (UniProt P20871); assay: as above
[7] = biological target: JR-FL gp41 NT 1-5 SOS gp140 mutant (trimer) (HIV-1 isolate JR-FL (subtype B)) (UniProt P20871); assay: SPR, with against without D1D2-CD4
[8] = biological target: wild-type JR-FL SOS gp140 (trimer) (HIV-1 isolate JR-FL (subtype B)) (UniProt P20871); assay: SPR, with against without D1D2-CD4
[9] = biological target: JR-FL gp41 NT 1-5 SOS gp140 mutant (trimer) (HIV-1 isolate JR-FL (subtype B)) (UniProt P20871); assay: SPR (BIAcore X): 17b captured via Fc on protein G chip, 5 nM gp140 trimer pre-incubated 1 h with 6-molar excess D1D2-CD4
[10] = biological target: wild-type JR-FL SOS gp140 (trimer) (HIV-1 isolate JR-FL (subtype B)) (UniProt P20871); assay: as above

Substance: T-20 (Enfuvirtide) (peptide)
- IC50 of neutralization, fold against the mutant [1]: 2 fold
- neutralization of Env-pseudotyped virus infectivity (U87.CD4.CCR5 cells), mean IC50 [1]: 24.2 nM
- neutralization of Env-pseudotyped virus infectivity (U87.CD4.CCR5 cells), mean IC50 [2]: 11.5 nM

Substance: MAb b12 (antibody)
- Mean RU at end of injection (t = 180 s) [3]: 195 RU
- Mean RU at end of injection (t = 180 s) [4]: 223 RU
- neutralization of Env-pseudotyped virus infectivity (U87.CD4.CCR5 cells), mean IC50 [1]: 0.15 µg/mL
- neutralization of Env-pseudotyped virus infectivity (U87.CD4.CCR5 cells), mean IC50 [2]: 0.17 µg/mL

Substance: MAb 15e (antibody)
- neutralization of Env-pseudotyped virus infectivity (U87.CD4.CCR5 cells), mean IC50 [1]: > 50 µg/mL
- neutralization of Env-pseudotyped virus infectivity (U87.CD4.CCR5 cells), mean IC50 [2]: > 50 µg/mL

Substance: monoclonal antibody (MAb) PA-1
- Mean RU at end of injection (t = 180 s) [3]: 123 RU
- Mean RU at end of injection (t = 180 s) [4]: 242 RU
- neutralization of Env-pseudotyped virus infectivity (U87.CD4.CCR5 cells), mean IC50 [1]: > 50 µg/mL
- neutralization of Env-pseudotyped virus infectivity (U87.CD4.CCR5 cells), mean IC50 [2]: > 50 µg/mL

Substance: MAb b6 (antibody)
- Mean RU at end of injection (t = 180 s) [3]: 233 RU
- Mean RU at end of injection (t = 180 s) [4]: 391 RU
- neutralization of Env-pseudotyped virus infectivity (U87.CD4.CCR5 cells), mean IC50 [1]: > 50 µg/mL
- neutralization of Env-pseudotyped virus infectivity (U87.CD4.CCR5 cells), mean IC50 [2]: > 50 µg/mL

Substance: CD4-IgG2 (PRO 542) (from UniProt P01730 26-204) (Fc fusion)
- Mean RU at end of injection (t = 180 s) [3]: 224 RU
- Mean RU at end of injection (t = 180 s) [4]: 212 RU
- neutralization of Env-pseudotyped virus infectivity (U87.CD4.CCR5 cells), mean IC50 [1]: 0.82 µg/mL
- neutralization of Env-pseudotyped virus infectivity (U87.CD4.CCR5 cells), mean IC50 [2]: 0.74 µg/mL

Substance: MAb 4E10 (antibody)
- Mean RU at end of injection (t = 180 s) [3]: 94 RU
- Mean RU at end of injection (t = 180 s) [4]: 83 RU
- neutralization of Env-pseudotyped virus infectivity (U87.CD4.CCR5 cells), mean IC50 [1]: 13.4 µg/mL
- neutralization of Env-pseudotyped virus infectivity (U87.CD4.CCR5 cells), mean IC50 [2]: 14.1 µg/mL

Substance: MAb A32 (antibody)
- neutralization of Env-pseudotyped virus infectivity (U87.CD4.CCR5 cells), mean IC50 [1]: > 50 µg/mL
- neutralization of Env-pseudotyped virus infectivity (U87.CD4.CCR5 cells), mean IC50 [2]: > 50 µg/mL

Substance: MAb 2F5 (antibody)
- Mean RU at end of injection (t = 180 s) [3]: 216 RU
- Mean RU at end of injection (t = 180 s) [4]: 191 RU
- neutralization of Env-pseudotyped virus infectivity (U87.CD4.CCR5 cells), mean IC50 [1]: 6.2 µg/mL
- neutralization of Env-pseudotyped virus infectivity (U87.CD4.CCR5 cells), mean IC50 [2]: 5.9 µg/mL

Substance: MAb 17b (antibody)
- Mean RU at end of injection (t = 180 s) [5]: 14 RU
- Mean RU at end of injection (t = 180 s) [6]: 39 RU
- fold induction of 17b binding by D1D2-CD4 [7]: 25 fold
- fold induction of 17b binding by D1D2-CD4 [8]: 5 fold
- neutralization of Env-pseudotyped virus infectivity (U87.CD4.CCR5 cells), mean IC50 [1]: > 50 µg/mL
- neutralization of Env-pseudotyped virus infectivity in the presence of sCD4 (17b + sCD4), mean IC50 [1]: 25.9 µg/mL
- neutralization in the presence of sCD4, fold against the WT virus [2]: 2 fold
- neutralization of Env-pseudotyped virus infectivity (U87.CD4.CCR5 cells), mean IC50 [2]: > 50 µg/mL
- neutralization of Env-pseudotyped virus infectivity in the presence of sCD4 (17b + sCD4), mean IC50 [2]: 15.2 µg/mL
- Mean RU at end of injection (t = 180 s) [9]: 399 RU
- Mean RU at end of injection (t = 180 s) [10]: 237 RU

Substance: MAb F425-B4e8 (antibody)
- neutralization of Env-pseudotyped virus infectivity (U87.CD4.CCR5 cells), mean IC50 [1]: 2.94 µg/mL
- neutralization of Env-pseudotyped virus infectivity (U87.CD4.CCR5 cells), mean IC50 [2]: 2.64 µg/mL
